The source of these data is US20250026792A1, “SELF-ASSEMBLING PEPTIDES WITH HYALURONIC ACID BINDING DOMAINS AND METHODS OF USE THEREOF” (Northwestern University, priority 2022, published 2025).

B1: Peptide BHP4 (peptide)
peptide: Biotin-TNLRNKYTFLARARANLAVRNKQNIKS-OH
SMILES: CC[C@H](C)[C@H](NC(=O)[C@H](CC(N)=O)NC(=O)[C@H](CCC(N)=O)NC(=O)[C@H](CCCCN)NC(=O)[C@H](CC(N)=O)NC(=O)[C@H](CCCNC(=N)N)NC(=O)[C@@H](NC(=O)[C@H](C)NC(=O)[C@H](CC(C)C)NC(=O)[C@H](CC(N)=O)NC(=O)[C@H](C)NC(=O)[C@H](CCCNC(=N)N)NC(=O)[C@H](C)NC(=O)[C@H](CCCNC(=N)N)NC(=O)[C@H](C)NC(=O)[C@H](CC(C)C)NC(=O)[C@H](Cc1ccccc1)NC(=O)[C@@H](NC(=O)[C@H](Cc1ccc(O)cc1)NC(=O)[C@H](CCCCN)NC(=O)[C@H](CC(N)=O)NC(=O)[C@H](CCCNC(=N)N)NC(=O)[C@H](CC(C)C)NC(=O)[C@H](CC(N)=O)NC(=O)[C@@H](NC(=O)CCCC[C@@H]1SC[C@@H]2NC(=O)N[C@@H]21)[C@@H](C)O)[C@@H](C)O)C(C)C)C(=O)N[C@@H](CCCCN)C(=O)N[C@@H](CO)C(=O)O
notes: Variant of BHP3; biotinylated synthetic peptide; also called BPH4
B2: Peptide 4 (peptide)
peptide: Biotin-LKTKIKIIVKTKSSAKLRSKLVNSHKI-OH
SMILES: CC[C@H](C)[C@H](NC(=O)[C@H](CCCCN)NC(=O)[C@H](Cc1c[nH]cn1)NC(=O)[C@H](CO)NC(=O)[C@H](CC(N)=O)NC(=O)[C@@H](NC(=O)[C@H](CC(C)C)NC(=O)[C@H](CCCCN)NC(=O)[C@H](CO)NC(=O)[C@H](CCCNC(=N)N)NC(=O)[C@H](CC(C)C)NC(=O)[C@H](CCCCN)NC(=O)[C@H](C)NC(=O)[C@H](CO)NC(=O)[C@H](CO)NC(=O)[C@H](CCCCN)NC(=O)[C@@H](NC(=O)[C@H](CCCCN)NC(=O)[C@@H](NC(=O)[C@@H](NC(=O)[C@@H](NC(=O)[C@H](CCCCN)NC(=O)[C@@H](NC(=O)[C@H](CCCCN)NC(=O)[C@@H](NC(=O)[C@H](CCCCN)NC(=O)[C@H](CC(C)C)NC(=O)CCCC[C@@H]1SC[C@@H]2NC(=O)N[C@@H]21)[C@@H](C)O)[C@@H](C)CC)[C@@H](C)CC)[C@@H](C)CC)C(C)C)[C@@H](C)O)C(C)C)C(=O)O
notes: Variant of peptide 8h-2; biotinylated synthetic peptide
B3: Peptide 7c (peptide)
peptide: Biotin-KTKATVKIKNKQKSVNALKQKIVLLSK-OH
SMILES: CC[C@H](C)[C@H](NC(=O)[C@H](CCCCN)NC(=O)[C@@H](NC(=O)[C@@H](NC(=O)[C@H](C)NC(=O)[C@H](CCCCN)NC(=O)[C@@H](NC(=O)[C@H](CCCCN)NC(=O)CCCC[C@@H]1SC[C@@H]2NC(=O)N[C@@H]21)[C@@H](C)O)[C@@H](C)O)C(C)C)C(=O)N[C@@H](CCCCN)C(=O)N[C@@H](CC(N)=O)C(=O)N[C@@H](CCCCN)C(=O)N[C@@H](CCC(N)=O)C(=O)N[C@@H](CCCCN)C(=O)N[C@@H](CO)C(=O)N[C@H](C(=O)N[C@@H](CC(N)=O)C(=O)N[C@@H](C)C(=O)N[C@@H](CC(C)C)C(=O)N[C@@H](CCCCN)C(=O)N[C@@H](CCC(N)=O)C(=O)N[C@@H](CCCCN)C(=O)N[C@H](C(=O)N[C@H](C(=O)N[C@@H](CC(C)C)C(=O)N[C@@H](CC(C)C)C(=O)N[C@@H](CO)C(=O)N[C@@H](CCCCN)C(=O)O)C(C)C)[C@@H](C)CC)C(C)C
notes: Variant of 17x-3; biotinylated synthetic peptide

The star is where a group is joined. Biotin = O=C1N[C@H]2[C@H](CS[C@H]2CCCCC(=O)*)N1

The test addresses T1, elastin (bovine) (bovine, UniProt P04985 27-747, limits assumed).
T1 construct: Coated and dried on plates at 10 ug/cm2
T1 sequence (looked up): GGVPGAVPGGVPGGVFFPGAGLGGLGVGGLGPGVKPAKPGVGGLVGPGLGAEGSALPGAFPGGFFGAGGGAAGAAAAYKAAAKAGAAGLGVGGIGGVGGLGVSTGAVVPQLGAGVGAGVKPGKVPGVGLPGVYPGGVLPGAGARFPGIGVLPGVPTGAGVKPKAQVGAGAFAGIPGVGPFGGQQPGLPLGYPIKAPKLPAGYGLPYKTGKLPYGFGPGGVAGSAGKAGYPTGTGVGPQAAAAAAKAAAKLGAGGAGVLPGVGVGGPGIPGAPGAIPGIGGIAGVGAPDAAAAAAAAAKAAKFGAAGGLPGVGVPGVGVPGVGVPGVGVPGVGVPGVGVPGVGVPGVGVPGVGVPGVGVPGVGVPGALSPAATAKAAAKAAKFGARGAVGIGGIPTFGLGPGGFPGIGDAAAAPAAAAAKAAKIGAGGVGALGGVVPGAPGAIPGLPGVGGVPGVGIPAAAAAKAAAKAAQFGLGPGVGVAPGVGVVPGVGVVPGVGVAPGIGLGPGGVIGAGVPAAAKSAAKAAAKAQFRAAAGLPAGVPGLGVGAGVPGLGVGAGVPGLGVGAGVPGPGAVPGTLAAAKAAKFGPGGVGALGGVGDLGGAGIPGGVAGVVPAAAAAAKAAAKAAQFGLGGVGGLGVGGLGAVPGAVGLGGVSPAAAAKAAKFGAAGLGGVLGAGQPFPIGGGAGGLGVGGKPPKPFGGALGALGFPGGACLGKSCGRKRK
Kind of test: plate assay: biotinylated peptide (5.0 mg/ml) on dried ECM coating, streptavidin-488 fluorescence. The procedure:
Peptides were incubated 24 hours at 37° C. on collagens I-IV, elastin, hyaluronic acid, and Geltrex. Coatings (10 pig/cm²) were previously dried overnight in milli-Q water. Overall significance was assessed using analysis of variance, with Tukey's multiple comparison post-hoc analysis between ECM groups where n=4.
N-termini biotinylated peptides were added to coated plates at 0, 1, 2.5, 5 and 10 mg/ml overnight at 37° C. in phosphate buffered saline (PBS), pH 7.4, after which the plates were washed three times with PBS. Fluorescent streptavidin-488 (4 μg/mL) was added to each well and incubated at 37° C. temperature for 24 hours, then thoroughly washed with PBS. The plates were read with a fluorescence microplate reader for fluorescence intensity (Ex 490 nm, Em 525 nm). All data were normalized to the background fluorescence intensity of Streptavidin-488.
On to B1, for which the binding result is listed as “binds”.

Turning to B2, the binding result is “binds”.

For the molecule B3, the binding result is “binds”.
